From article PMC10731240 come the findings set out here.

The target in assay [1] is Leishmania tarentolae PNUTS, endogenously HA-tagged. Kind of assay: co-IP (PP1-8e-Pd pull-down, Western blot band quantification). To be noted: parent: 1; read off a plot. Background: A western blot detects proteins with antibodies after separation by electrophoresis.
The target in assay [2] is LtPNUTS V97A, Pd-tagged (Leishmania tarentolae). Kind of assay: co-IP; L. tarentolae cell extract; Pd-tagged PNUTS (overexpressed from pSNSAP1) held on IgG Sepharose beads, 4 h at 4 °C, washed three times in PA-150 buffer; endogenously HA-tagged PP1-8e, JBP3 or Wdr82 detected by anti-HA Western blot; %IP relative to WT PNUTS.
The target in assay [3] is LtPNUTS L111A, Pd-tagged (Leishmania tarentolae). The assay is described as above.
Assay [4] deals with LtPNUTS R94A, Pd-tagged (Leishmania tarentolae). The assay is described as above.
The target of assay [5] is LtPNUTS D101A, Pd-tagged (Leishmania tarentolae). The description is as above.
Assay [6] has as its target Leishmania tarentolae PP1-8e, endogenously HA-tagged. Kind of assay: co-IP (anti-protein A affinity resin, Western blot band quantification). Particulars: parent: 1; read off a plot.
For assay [7], the target named is Leishmania tarentolae PNUTS, endogenously HA-tagged. Described as above. Particulars: parent: 1; read off a plot.
For assay [8], the target named is LtPP1-8e D292A, Pd-tagged (Leishmania tarentolae). Kind of assay: co-IP; L. tarentolae cell extract; Pd-tagged PP1 (overexpressed from pSNSAP1) held on IgG Sepharose beads, 4 h at 4 °C, washed three times in PA-150 buffer; endogenously HA-tagged PNUTS detected by anti-HA Western blot; %IP relative to WT PP1-8e.
Assay [9] has as its target LtPP1-8e F305A, Pd-tagged (Leishmania tarentolae). The description is as above.
For assay [10], the target named is LtPP1-8e CΔ23 (23 amino acid C-terminal extension deleted), Pd-tagged (Leishmania tarentolae). Described as above.
The target of assay [11] is LtPP1-8e CΔ11 (final 11 amino acids deleted), Pd-tagged (Leishmania tarentolae). Described as above.
Assay [12] addresses LtPP1-8e 263–265A, Pd-tagged (Leishmania tarentolae). The description is as above.
The target in assay [13] is LtPP1-8e 359 to 362A, Pd-tagged (Leishmania tarentolae). The assay is described as above.
Assay [14] concerns the target LtPP1-8e I360A, Pd-tagged (Leishmania tarentolae). The assay is described as above.
Assay [15] has as its target LtPP1-8e D290A, Pd-tagged (Leishmania tarentolae). Described as above.
Assay [16] deals with LtPP1-8e 109–134Δ (26 amino acid insertion deleted), Pd-tagged (Leishmania tarentolae). The assay is described as above.
The target of assay [17] is LtPP1-8e I217A, Pd-tagged (Leishmania tarentolae). The assay is described as above.
The target of assay [18] is LtPP1-8e with ^310DHK^312 mutated to alanine, Pd-tagged (Leishmania tarentolae). The description is as above.
The target in assay [19] is LtPP1-8e with ^260LP^261 mutated to alanine, Pd-tagged (Leishmania tarentolae). The assay is described as above.
Assay [20] deals with LtPP1-8e 354–358A, Pd-tagged (Leishmania tarentolae). The assay is described as above.
The target of assay [21] is LtPP1-8e 109–114A (GGVFG to alanine), Pd-tagged (Leishmania tarentolae). The description is as above.

Take “Leishmania tarentolae PP1-8e, Pd-tagged (WT) S126A; D129A; D130A; Y133A; S134A”: the ratio to parent in [1] came to 0.84.
The substance “Leishmania tarentolae PP1-8e, endogenously HA-tagged (enzyme)” displayed a fold decrease of co-IP against WT PNUTS in [2] of 5 fold. Moreover, the percent reduction of co-IP against WT PNUTS in [3] was determined as 80%; in [4], 50%; in assay [5], 80%.
Regarding “Leishmania tarentolae PNUTS, Pd-tagged (WT, full-length) F118A”, the ratio to parent in assay [6] was 0.22.
For the substance “Leishmania tarentolae PP1-8e, Pd-tagged (WT) Y96A”, the ratio to parent in assay [7] is 0.68.
Still for that read-out and setting: the figure for “Leishmania tarentolae PP1-8e, Pd-tagged (WT) I346A” is 0.025; for “Leishmania tarentolae PP1-8e, Pd-tagged (WT) F307A” it is 0.
For the substance “Leishmania tarentolae PP1-8e, Pd-tagged (WT) D116A; K118A; K119A; R121A”, the ratio to parent in assay [1] turned out to be 0.79.
For the substance “Leishmania tarentolae PNUTS, Pd-tagged (WT, full-length) W99A”, in [6], the ratio to parent worked out at 0.08.
“Leishmania tarentolae PP1-8e, Pd-tagged (WT) D265A”: in assay [1], the ratio to parent stood at 0.51.
As to “Leishmania tarentolae PNUTS, Pd-tagged (WT, full-length) K95A”, the ratio to parent in assay [6] was 1.
The same measure, in the same setting: in the case of “Leishmania tarentolae PNUTS, Pd-tagged (WT, full-length) H114A; V115A” it was 0.17.
“Leishmania tarentolae PP1-8e, Pd-tagged (WT) T348A”: the ratio to parent in [7] was 0.82.
As to “Leishmania tarentolae PP1-8e, Pd-tagged (WT) R314A”, the ratio to parent in assay [7] stood at 0.01.
For the substance “Leishmania tarentolae PNUTS, Pd-tagged (WT, full-length) R125A”, in assay [6], the ratio to parent was 0.92.
As to “Leishmania tarentolae PNUTS, endogenously HA-tagged (natural protein)”, the percent reduction of co-IP against WT PP1-8e in assay [8] came out at 60%; in assay [9], 80%; in assay [11] it was 30%; in assay [12], 90%; in [13], 80%; in assay [14], 80%. Moreover, the percent reduction of co-IP against WT PP1-8e in assay [15] was 50%; in [16] it was 80%; in [17] it was 50%; in assay [20], 50%; in assay [21] it was 80%. The substance further had a percent loss of co-IP against WT PP1-8e in assay [10] of 80%. For the same substance, the percent decrease of co-IP against WT PP1-8e in assay [18] came to 20%. In [19], this substance showed a percent of co-IP lost against WT PP1-8e of 80%.
